Holding throughout (details): RNAse-B 50 μg/mL in PBS
One experiment addresses ConA (Canavalia ensiformis, UniProt P02866).
For experiment [1], the target named is T1, GNA (Galanthus nivalis agglutinin) (Galanthus nivalis, UniProt P30617).
T1 sequence (P30617 20-128): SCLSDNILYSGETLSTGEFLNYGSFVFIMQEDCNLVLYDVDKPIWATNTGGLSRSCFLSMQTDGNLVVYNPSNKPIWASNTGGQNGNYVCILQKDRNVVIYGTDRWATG
Nature of the experiment: Lectin array, RNAse B binding by fluorescence scanning and MALDI-Tof MS. The procedure: (§1) Slides were stored at −20° C.

Experiment [2] has as its system WGA (Wheat Germ Agglutinin). The experiment is described as above. The procedure:
as §1

Description for ConA: 0.4-0.3 mg/mL (glyco)protein solutions (Concanavalin A, ConA; WGA; and Galanthus nivalis agglutinin, GNA, lectins and RNAse B glycoprotein) were prepared in PBS, and 50 drops (˜0.3 nL per drop) were deposited onto the surface with a dot pitch of 750×750 μm. Slides were then incubated overnight at room temperature in 90% humidity, washed with PBS, quenched with ethanolamine and dried by purging Ar. Slides were stored at −20° C.
A lectin array of ConA, GNA and WGA was printed onto slides as described above, and Cy3-labelled or unlabelled RNAse-B (50 μg/mL in PBS) was added to wells. RNAse B binding and lectin modifications were analyzed by fluorescence imaging and MALDI-Tof MS (FIG. 12).

B1: RNAse B: RNAse B glycoprotein, glycoforms presenting mannose oligosaccharides M5-M9 (protein, UniProt P61823 27-150, looked up)
Ribonuclease pancreatic: KETAAAKFERQHMDSSTSAASSSNYCNQMMKSRNLTKDRCKPVNTFVHESLADVQAVCSQKNVACKNGQTNCYQSYSTMSITDCRETGSSKYPNCAYKTTQANKHIIVACEGNPYVPVHFDASV
modifications: glycoform B
Regarding B1, the “binding to ConA” value with ConA is listed as “binding”. For the same molecule, in experiment [1], the “binding to GNA” value is “binding”. In addition, the “interaction with WGA” value in experiment [2] was “no interaction”.

The record behind these values is patent US9453838B2, “Methods for making microarrays and their uses” (Asociación Centro De Investigación Cooperative En Bioma …, priority 2013, dated 2016).
